According to PMC9616950, “A toxin-deformation dependent inhibition mechanism in the T7SS toxin-antitoxin system of Gram-positive bacteria” (Nature Communications, 2022):

B1: EsaG (natural protein)
chain: MTFEEKLSKIYNEIANEISSMIPVEWEKVYTMAYIDDGGGEVFFNYTKPGSDDLNYYTNIPKEYNISVQVFDDLWMDLYDLFEELRDLFKEEDLEPWTSCEFDFTREGELKVSFDYIDWINSEFGQIGRQNYYKYRKFGILPETEYEINKVKEIEQYIKELEE
notes: also called antitoxin EsaG; full-length EsaG; source: E. coli BL21(DE3), purified (nickel column, ion exchange, Superdex 200); not shown: His6-SUMO, N-terminal, cleaved
B4: EsaDc H528A (EsaD residues 450-614, crystallised with EsaG) (domain or fragment)
chain: SPNYTKVEFGEHYARLRPKKLKANIEYTTPTGHIYRTDHKGRIKEVYVDNLSLKDGDRNSHAQRTVGGEDRLPDDDGGALIARMFGGSKDIDNLVAQSKFINRPFKEKGHWYNLEKEWQEFLNSGKEVKNIKMEVKYSGNSQRPTIFKVEYEINGERNIRRILNK
notes: source: E. coli BL21(DE3), purified (nickel column, ion exchange, Superdex 200); not shown: His6-SUMO, N-terminal, cleaved

Tests used:
[1] = biological target: Avi-tagged EsaG, biotinylated (S. aureus) (UniProt Q2G178); test: BLI; biotinylated Avi-tagged EsaG immobilised on streptavidin biosensors, EsaDc in solution at different concentrations; 300 mM NaCl, 30 mM NaH2PO4, 27 mM KCl, pH 7.2
[2] = biological target: B4; test: crystal structure; EsaDc-EsaG complex, 2.60 Å; hanging drop, 0.1 M Tris pH 8.5, 12% PEG6000, 0.15 M NaCl, 10% ethylene glycol, 0.5% Tacsimate pH 7.0, 1.0% PEG5000MME; conditions: both partners purified
EsaG [3] = biological target: B1; test: pull-down; His-SUMO-tagged protein on Ni-NTA beads with untagged protein (0.16 mM : 0.2 mM); 25 mM Tris-HCl pH 8.0, 1 M NaCl, 24 °C, 30 min; Coomassie-stained SDS-PAGE; conditions: both partners purified
EsaG [4] = biological target: B1; test: SEC; gel filtration of purified proteins and their mixtures; column and buffer not told for these runs; conditions: both partners purified
[5] = biological target: the molecule itself; test: crystal structure; EsaDc-EsaG complex, 2.60 Å; hanging drop, 0.1 M Tris pH 8.5, 12% PEG6000, 0.15 M NaCl, 10% ethylene glycol, 0.5% Tacsimate pH 7.0, 1.0% PEG5000MME

“EsaDc (EsaD residues 450-614, as used in the solution assays) (from UniProt Q2G179 450-614) (domain or fragment)” was tested, and the Kd [1] was 460 nM.

For “EsaDc Y484A (from UniProt Q2G179 450-614) (domain or fragment)”, the Kd [1] was 1670 nM.

“EsaDc N562F (from UniProt Q2G179 450-614) (domain or fragment)” was tested, and the Kd [1] was 860 nM.

B1: binds [2].

B2: His-EsaDc-NFL (His-SUMO-tagged EsaD residues 450-503) (domain or fragment)
chain: SPNYTKVEFGEHYARLRPKKLKANIEYTTPTGHIYRTDHKGRIKEVYVDNLSLK
notes: also called His-tagged NFL; source: E. coli, purified; not shown: His-SUMO, N-terminal, kept
B2: binds (EsaG [3]).

B3: NFL (EsaD residues 450-503) (domain or fragment)
chain: SPNYTKVEFGEHYARLRPKKLKANIEYTTPTGHIYRTDHKGRIKEVYVDNLSLK
notes: 15N-labelled in one of the HSQC samples; The methods call the fragment NTL; also called EsaDc-NFL; NTL; source: E. coli BL21(DE3), purified (nickel column, ion exchange, Superdex 200); not shown: His6-SUMO, N-terminal, cleaved
B3: binds (EsaG [4]).

B4: binds [5].
